According to patent US5786206:

Assays:
[1] = target: apo A-I/B-100 fusion protein expressed by plasmid 137 (beta-galactosidase / apo A-I / apo B-100) (human); assay: ELISA, plate coated with 1/32 dilution of the 137 stock, HRPO-labeled AI-11 1:1000
[2] = target: control protein from cells containing plasmid pUR291 (beta-galactosidase without an apolipoprotein insert) (Escherichia coli (strain K12)) [β-galactosidase: P00722]; assay: ELISA, plate coated with 1/2 dilution of the pUR291 control stock (395.0 ug/100 ul), HRPO-labeled AI-11 1:1000
[3] = target: control protein from cells containing plasmid pUR291 (beta-galactosidase without an apolipoprotein insert) (Escherichia coli (strain K12)) [β-galactosidase: P00722]; assay: ELISA, plate coated with 1/4 dilution of the pUR291 control stock, HRPO-labeled AI-11 1:1000
[4] = target: control protein from cells containing plasmid pUR291 (beta-galactosidase without an apolipoprotein insert) (Escherichia coli (strain K12)) [β-galactosidase: P00722]; assay: ELISA, plate coated with 1/64 dilution of the pUR291 control stock, HRPO-labeled AI-11 1:1000
[5] = target: apo A-I/B-100 fusion protein expressed by plasmid 137 (beta-galactosidase / apo A-I / apo B-100) (human); assay: ELISA, plate coated with 1/2 dilution of the 137 stock (0.95 ug/100 ul), HRPO-labeled AI-11 1:1000
[6] = target: control protein from cells containing plasmid pUR291 (beta-galactosidase without an apolipoprotein insert) (Escherichia coli (strain K12)) [β-galactosidase: P00722]; assay: ELISA, plate coated with 1/32 dilution of the pUR291 control stock, HRPO-labeled AI-11 1:1000
[7] = target: control protein from cells containing plasmid pUR291 (beta-galactosidase without an apolipoprotein insert) (Escherichia coli (strain K12)) [β-galactosidase: P00722]; assay: ELISA, plate coated with 1/8 dilution of the pUR291 control stock, HRPO-labeled AI-11 1:1000
[8] = target: control protein from cells containing plasmid pUR291 (beta-galactosidase without an apolipoprotein insert) (Escherichia coli (strain K12)) [β-galactosidase: P00722]; assay: ELISA, plate coated with 1/16 dilution of the pUR291 control stock, HRPO-labeled AI-11 1:1000
[9] = target: apo A-I/B-100 fusion protein expressed by plasmid 137 (beta-galactosidase / apo A-I / apo B-100) (human); assay: ELISA, plate coated with 1/4 dilution of the 137 stock, HRPO-labeled AI-11 1:1000
[10] = target: apo A-I/B-100 fusion protein expressed by plasmid 137 (beta-galactosidase / apo A-I / apo B-100) (human); assay: ELISA, plate coated with 1/16 dilution of the 137 stock, HRPO-labeled AI-11 1:1000
[11] = target: apo A-I/B-100 fusion protein expressed by plasmid 137 (beta-galactosidase / apo A-I / apo B-100) (human); assay: ELISA, plate coated with 1/64 dilution of the 137 stock, HRPO-labeled AI-11 1:1000
[12] = target: apo A-I/B-100 fusion protein expressed by plasmid 137 (beta-galactosidase / apo A-I / apo B-100) (human); assay: ELISA, plate coated with 1/8 dilution of the 137 stock, HRPO-labeled AI-11 1:1000
[13] = target: apo A-I/B-100 fusion protein expressed by plasmid 137 (beta-galactosidase / apo A-I / apo B-100) (human); assay: ELISA, plate coated with 1/4 dilution of the 137 stock, HRPO-labeled MB47 1:1000
[14] = target: apo A-I/B-100 fusion protein expressed by plasmid 137 (beta-galactosidase / apo A-I / apo B-100) (human); assay: ELISA, plate coated with 1/64 dilution of the 137 stock, HRPO-labeled MB47 1:1000
[15] = target: apo A-I/B-100 fusion protein expressed by plasmid 137 (beta-galactosidase / apo A-I / apo B-100) (human); assay: ELISA, plate coated with 1/32 dilution of the 137 stock, HRPO-labeled MB47 1:1000
[16] = target: control protein from cells containing plasmid pUR291 (beta-galactosidase without an apolipoprotein insert) (Escherichia coli (strain K12)) [β-galactosidase: P00722]; assay: ELISA, plate coated with 1/2 dilution of the pUR291 control stock (395.0 ug/100 ul), HRPO-labeled MB47 1:1000
[17] = target: control protein from cells containing plasmid pUR291 (beta-galactosidase without an apolipoprotein insert) (Escherichia coli (strain K12)) [β-galactosidase: P00722]; assay: ELISA, plate coated with 1/16 dilution of the pUR291 control stock, HRPO-labeled MB47 1:1000
[18] = target: control protein from cells containing plasmid pUR291 (beta-galactosidase without an apolipoprotein insert) (Escherichia coli (strain K12)) [β-galactosidase: P00722]; assay: ELISA, plate coated with 1/32 dilution of the pUR291 control stock, HRPO-labeled MB47 1:1000
[19] = target: control protein from cells containing plasmid pUR291 (beta-galactosidase without an apolipoprotein insert) (Escherichia coli (strain K12)) [β-galactosidase: P00722]; assay: ELISA, plate coated with 1/8 dilution of the pUR291 control stock, HRPO-labeled MB47 1:1000
[20] = target: apo A-I/B-100 fusion protein expressed by plasmid 137 (beta-galactosidase / apo A-I / apo B-100) (human); assay: ELISA, plate coated with 1/16 dilution of the 137 stock, HRPO-labeled MB47 1:1000
[21] = target: control protein from cells containing plasmid pUR291 (beta-galactosidase without an apolipoprotein insert) (Escherichia coli (strain K12)) [β-galactosidase: P00722]; assay: ELISA, plate coated with 1/64 dilution of the pUR291 control stock, HRPO-labeled MB47 1:1000
[22] = target: apo A-I/B-100 fusion protein expressed by plasmid 137 (beta-galactosidase / apo A-I / apo B-100) (human); assay: ELISA, plate coated with 1/8 dilution of the 137 stock, HRPO-labeled MB47 1:1000
[23] = target: control protein from cells containing plasmid pUR291 (beta-galactosidase without an apolipoprotein insert) (Escherichia coli (strain K12)) [β-galactosidase: P00722]; assay: ELISA, plate coated with 1/4 dilution of the pUR291 control stock, HRPO-labeled MB47 1:1000
[24] = target: apo A-I/B-100 fusion protein expressed by plasmid 137 (beta-galactosidase / apo A-I / apo B-100) (human); assay: ELISA, plate coated with 1/2 dilution of the 137 stock (0.95 ug/100 ul), HRPO-labeled MB47 1:1000

monoclonal antibody AI-11, secreted by hybridoma AI-11 (ATCC HB 9201)
Optical density at 490 nm [1]: 0.14 OD 490 nm | Optical density at 490 nm [2]: 0.1 OD 490 nm | Optical density at 490 nm [3]: 0.08 OD 490 nm | Optical density at 490 nm [4]: 0.04 OD 490 nm | Optical density at 490 nm [5]: 1 OD 490 nm | Optical density at 490 nm [6]: 0.05 OD 490 nm | Optical density at 490 nm [7]: 0.08 OD 490 nm | Optical density at 490 nm [8]: 0.07 OD 490 nm | Optical density at 490 nm [9]: 0.6 OD 490 nm | Optical density at 490 nm [10]: 0.14 OD 490 nm | Optical density at 490 nm [11]: 0.12 OD 490 nm | Optical density at 490 nm [12]: 0.2 OD 490 nm

monoclonal antibody MB47, secreted by hybridoma MB47 (ATCC HB 8746)
Optical density at 490 nm [13]: 0.46 OD 490 nm | Optical density at 490 nm [14]: 0.08 OD 490 nm | Optical density at 490 nm [15]: 0.1 OD 490 nm | Optical density at 490 nm [16]: 0.1 OD 490 nm | Optical density at 490 nm [17]: 0.04 OD 490 nm | Optical density at 490 nm [18]: 0.02 OD 490 nm | Optical density at 490 nm [19]: 0.1 OD 490 nm | Optical density at 490 nm [20]: 0.1 OD 490 nm | Optical density at 490 nm [21]: 0.01 OD 490 nm | Optical density at 490 nm [22]: 0.14 OD 490 nm | Optical density at 490 nm [23]: 0.12 OD 490 nm | Optical density at 490 nm [24]: 1.3 OD 490 nm
